Measured values taken from patent US10280197B2, “Discovery of the first selective C5A receptor 2 (C5L2/C5AR2) ligands” (The Regents of the University of California, priority 2015, dated 2019).
Blank lines part the entries; values can stand above or below the molecule they belong to.

Tests used:
[1] = Estimated blood concentration after i.v. dose; assay type: in vivo; settings: C57BL/6J, whole blood, intravenous; 3 mg/kg, assuming a blood volume of 2 mL for a 25 g mouse
Experimental: To further explore the selectivity of the ligands P32 was tested in a mouse model of C5a-induced neutrophil mobilization (FIG. 6). […] Assuming a mouse blood volume of 2 mL for a 25 g mouse, a concentration of 3 mg/kg would result in Cmax blood concentrations of ˜50 uM, a dose within the active range of this compound from our in vitro studies

[2] = molecular target: T1, human C5a2 (Flp-In CHO-C5a2 membranes) (Homo sapiens, UniProt Q9P296); experiment: C5a2 receptor binding, scintillation proximity assay (125I-C5a displacement); settings: concentrations up to 1 μM
T1 construct: expressed in transfected cells
Experimental: Membranes were prepared from Flp-In CHO-05a2 cells by a previously described method^46. Briefly, cells were washed with PBS, pH 7.4, and harvested into buffer (50 mM Tris-HCl, pH 7.4, 5 mM MgCl2, 1 mM CaCl2) before homogenizing with a Polytron homogenizer for 3 min on setting 22. Cells were centrifuged at 150×g for 5 min at 4° C. The supernatant was recovered and centrifuged at 22 000×g for 1 h at 4° C. Membrane pellets were then resuspended in 0.4 mL of ice-cold buffer (50 mM Tris-HCl, pH 7.4, 5 mM MgCl2, 1 mM CaCl2, containing 10% glycerol) with aliquots stored at −80° C. The protein concentration of the membrane preparation was determined by Bradford method^47.
C5a2 receptor binding studies were performed using a modification of a previously described scintillation proximity assay (SPA) method^48. Briefly, C5a2 SPA studies were performed in 96-well white isoplates with clear flat bottoms (Perkin Elmer, Waltham, Mass., USA). SPA beads (200 μg/well) were added, following the addition of various concentrations of competing ligands or buffer (6 pM to 500 μM) in a total volume of 80 μL of assay buffer (50 mM Tris-HCl, pH 7.4, 0.5% BSA, 5 mM MgCl2, 1 mM CaCl2). ^125I-C5a (˜20 pM) (specific activity, 2200 Ci mmol^−1) (Perkin Elmer) was added to C5a2 membrane preparations (˜2 μg/well). The final reaction volume per well comprised 20 μL of ligand/buffer, 20 μL of SPA beads, 20 μl of membrane and the assay was initiated by the addition of 20 μL of ^125I-C5a. The plate was then sealed using TopSeal-A (Perkin Elmer) sealing film and incubated with shaking for 1 h at room temperature. Radioligand binding was then assessed for 30 s/well using a 1450 Microbeta scintillation counter (Perkin Elmer).

C5a1-C5a2 heteromer = molecular target: T2, C5a1-C5a2 heteromer (Homo sapiens, UniProt P21730+Q9P296); settings: high concentrations of C5a, previously shown; cited from earlier work
T2 construct: expressed in transfected cells; host or cells: HEK293 (transient)

LPS stimulated HMDM [3] = settings: literature reference 33; cited from earlier work
LPS stimulated HMDM [4] = experiment: Cytokine release from LPS stimulated HMDM (ELISA); assay type: cell-based, human; settings: C5a1 antagonist PMX53 10 μM pre-incubated 30 min
Experimental: FIG. 4 is a panel of graphs showing the testing P32 and P59 for effects on cytokine release from LPS stimulated HMDM. Measurement of human inflammatory cytokines IL-6 (4A, 4B), TNFα (4C, 4D) and IL-10 (4E, 4F) release from HMDM, 24 h after co-stimulation with LPS (10 ngml^−1) and C5a (0.1-100 nM), P32 or P59 (0.1-100 μM) with or without C5a1 antagonist PMX53 (10 μM) present. Cytokine release was quantified by ELISA. Data is representative of five independent HMDM donors performed in triplicate (n=5). CTRL represents non-stimulated HMDM. Data is normalised to LPS response (100%) for each donor. Error bars represent SEM. *P<0.05, ** P<0.01, *** P<0.001, **** P<0.0001 by one-way ANOVA followed by Dunnett's post hoc test or Sidak's post hoc test for comparisons+/−PMX53.
Briefly, HMDMs were seeded in 96 well tissue culture plates (Nunc) at 100 000 cells/well and allowed to adhere overnight at 37° C. and 5% CO2. The next day HMDMs were stimulated with E. coli derived LPS (10 ng ml^−1) only or LPS (10 ng ml^−1) and either C5a or C5a2 ligands at various concentrations (1-100 nM (C5a) or 0.1-100 μM (C5a2 ligands)). For testing cytokine release in the presence of C5a1 antagonist (PMX53), cells were pre-incubated with PMX53 at 10 μM for 30 min prior to addition of C5a or C5a2 ligands. Following ligand addition HMDMs were returned to 37° C. and 5% CO2 incubator and 24 h after stimulation supernatant was removed from cells and transferred to 96 well polypropylene microplate (Nunc) and stored at −20° C. till needed for assay. Quantification of cytokine release was performed using ELISA kits (BD OptEIA™) as per manufacturers' instructions (BD Biosciences, San Jose, Calif., USA).

C5a2 = C5a2 (Homo sapiens, UniProt Q9P296); experiment: BRET C5a2-β-arrestin 2 recruitment assay in HEK293 cells; assay type: cell-based; design: expressed in transfected cells; host or cells: HEK293 (transient)
Experimental: Assays were performed as a ligand-induced BRET experiment similar to previously described^17, 31, 49. In brief, HEK293 cells were transiently transfected with either C5a1-Rluc8 and β-arrestin 2-Venus or C5a2-Venus and β-arrestin 2-Rluc8 or C5a1-Rluc8 and C5a2-Venus in a 100-mm dish. 24 h after transfection cells were collected and transferred to a 96-well white microplate (Corning, N.Y., USA) in phenol-red free DMEM containing 5% FBS and 25 mM HEPES (Life Technologies). Cells were allowed to settle for 24 h and then were incubated with 30 μM Enduren (Promega, Madison, Wis., USA) for 2 h at 37° C. and 5% CO2 to ensure that the substrate had reached equilibrium. Following incubation BRET baseline measurements were taken for 15 min then ligands were added to plate and BRET measurements were taken for a further 1 h at 37° C. using a POLARstar optima microplate reader (BMG Labtech, Ortenberg, Germany). Filtered light emissions were sequentially measured for 1 s in each of the following windows 460-490 nm and 520-550 nm, both before and following ligand addition. The ligand-induced BRET ratio was calculated by subtracting the ratio of 520-550 nm emission over the 460-490 nm emission for a vehicle-treated sample from a ligand-treated sample of the same aliquot of cells in triplicate. The BRET ratio was calculated by subtracting the ratio of 520-550 nm emission over the 460-490 nm emission for a cell sample containing the C5a1-Rluc8 or β-arrestin 2-Rluc8 construct from a cell sample containing both the C5a1-Rluc8 and β-arrestin 2-Venus or C5a2-Venus and β-arrestin 2-Rluc8 or C5a1-Rluc8 and C5a2-Venus constructs. Peptides were also tested for ligand-induced β-arrestin 2 recruitment at 100 μM using DiscoveRx PathHunter kits for human C5a1 and C5a2 (DiscoveRx Corporation. Birmingham, UK), according to the manufacturer's instructions.

T1 sequence (Q9P296 whole entry): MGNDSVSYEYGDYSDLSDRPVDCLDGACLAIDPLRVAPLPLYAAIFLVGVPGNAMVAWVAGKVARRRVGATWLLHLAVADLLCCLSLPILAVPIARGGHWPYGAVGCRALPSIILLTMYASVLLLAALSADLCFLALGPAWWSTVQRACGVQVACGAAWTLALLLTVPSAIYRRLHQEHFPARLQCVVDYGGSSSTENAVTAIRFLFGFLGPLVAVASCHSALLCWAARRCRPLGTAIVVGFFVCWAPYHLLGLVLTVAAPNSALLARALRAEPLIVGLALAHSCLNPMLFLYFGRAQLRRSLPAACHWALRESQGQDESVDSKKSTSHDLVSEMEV
C5a2, sequence (Q9P296 whole entry): as above
C5a2, sequence (P32121 whole entry partner): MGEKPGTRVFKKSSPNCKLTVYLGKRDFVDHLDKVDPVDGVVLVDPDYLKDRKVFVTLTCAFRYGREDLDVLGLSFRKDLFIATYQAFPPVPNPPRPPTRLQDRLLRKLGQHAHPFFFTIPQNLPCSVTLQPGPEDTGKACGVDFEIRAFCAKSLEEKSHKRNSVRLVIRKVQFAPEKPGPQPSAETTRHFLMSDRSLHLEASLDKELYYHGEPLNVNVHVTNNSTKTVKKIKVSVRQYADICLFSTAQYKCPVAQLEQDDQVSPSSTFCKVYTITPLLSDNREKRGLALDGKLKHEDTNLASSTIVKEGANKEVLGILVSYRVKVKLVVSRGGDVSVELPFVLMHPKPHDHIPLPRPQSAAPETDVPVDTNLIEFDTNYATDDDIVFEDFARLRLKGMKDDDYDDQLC
T2 sequence (P21730 whole entry): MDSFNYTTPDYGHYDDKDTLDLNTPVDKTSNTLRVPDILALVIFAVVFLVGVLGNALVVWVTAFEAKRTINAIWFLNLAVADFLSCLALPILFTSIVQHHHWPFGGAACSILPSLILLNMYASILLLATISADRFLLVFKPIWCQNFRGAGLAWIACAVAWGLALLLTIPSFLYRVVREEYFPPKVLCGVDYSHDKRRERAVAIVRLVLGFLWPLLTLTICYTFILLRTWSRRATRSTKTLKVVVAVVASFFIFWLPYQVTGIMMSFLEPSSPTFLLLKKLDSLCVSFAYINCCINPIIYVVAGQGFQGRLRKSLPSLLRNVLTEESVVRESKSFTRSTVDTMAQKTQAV
T2 sequence (Q9P296 whole entry): as the sequence (Q9P296 whole entry) above

Cmax [1]: ~50 µM
Molecule: Ac-RHYPYWR-OH [Peptide P32, Ac-RHYPYWR-OH]

displacement of 125I-C5a from Flp-In CHO-C5a2 membrane preparations [2]: do not bind
Molecule: C3a-des Arg: human isolated C3a-des Arg/acylation-stimulating protein (ASP), purchased from Merck Biosciences

displacement of 125I-C5a from Flp-In CHO-C5a2 membrane preparations [2]: do not bind
Molecule: C3a: human isolated complement protein purchased from Merck Biosciences [Peptide C3a]

displacement of 125I-C5a from Flp-In CHO-C5a2 membrane preparations [2]: full inhibition
C5a2-β-arrestin 2 BRET Recruitment (% of C5a) (C5a2): 100 % of C5a
EC50 (C5a2; calculated at ~40 min after ligand addition): 50.3 ± 4.2 nM
B1: C5a: complement activation peptide; human recombinant C5a purchased from Sino Biologicals (protein)
chain: TLQKKIEEIAAKYKHSVVKKCCYDGACVNNDETCEQRAARISLGPRCIKAFTECCVVASQLRANISHKDMQLGR
up-regulation of heteromer formation between C5a1-C5a2 (C5a1-C5a2 heteromer): can up-regulate heteromer formation
IL-6 release from LPS stimulated HMDMs (LPS stimulated HMDM [3]): dose-dependently inhibits
IL-10 release from LPS stimulated HMDMs (LPS stimulated HMDM [3]): increasing the release
TNFα release from LPS stimulated HMDMs (LPS stimulated HMDM [3]): dose-dependently inhibits
IL-6 release from LPS stimulated HMDM in the presence of PMX53 (LPS stimulated HMDM [4]): completely blocked
IL-10 release from LPS stimulated HMDM in the presence of PMX53 (LPS stimulated HMDM [4]): completely blocked
TNFα release from LPS stimulated HMDM in the presence of PMX53 (LPS stimulated HMDM [4]): completely blocked

displacement of 125I-C5a from Flp-In CHO-C5a2 membrane preparations [2]: full inhibition
B2: C5a-des Arg: human isolated complement protein purchased from Merck Biosciences (protein)
chain: TLQKKIEEIAAKYKHSVVKKCCYDGACVNNDETCEQRAARISLGPRCIKAFTECCVVASQLRANISHKDMQLG
